Laboratory results as given in patent US12304939B2, “EGFR and C-met fibronectin type III domain binding molecules” (Janssen Biotech, Inc., priority 2012, dated 2025).
Changes are numbered by the printed parent chain. Values joined by “and” are separate entries in the source; they are usually repeats but may differ in a detail not shown here. Identical values can stand only once. “Also recorded” adds a separate entry of the source. Blank lines part the entries; values can stand above or below the molecule they belong to.

How the values were obtained:
[1] = test system: H292-HGF human lung cancer xenograft; test: Efficacy of bispecific molecule and other inhibitors of EGFR and c-Met, subcutaneous H292-HGF human lung cancer xenograft; assay type: in vivo, SCID/Beige mice; details: for Tumor volume: mean ± SEM
Procedure: The H292-HGF cells were maintained in vitro in RPMI1640 medium supplemented with fetal bovine serum (10% v/v), and L-glutamine (2 mM) at 37° C. in an atmosphere of 5% CO2 in air. The cells were routinely subcultured twice weekly by trypsin-EDTA treatment. The cells growing in an exponential growth phase were harvested and counted for tumor inoculation.
Each mouse was inoculated subcutaneously at the right flank region with H292-HGF tumor cells (2×10^6) in 0.1 ml of PBS with cultrex (1:1) for tumor development. The treatments were started when the mean tumor size reached 139 mm3. […] The date of tumor cell inoculation was denoted as day 0.
Before commencement of treatment, all animals were weighed, and the tumor volumes were measured. Since the tumor volume can affect the effectiveness of any given treatment, mice were assigned into groups using randomized block design based upon their tumor volumes. […] The randomized block design was used to assign experimental animals to groups. First, the experimental animals were divided into homogeneous blocks according to their initial tumor volume. Secondly, within each block, randomization of experimental animals to treatments was conducted.
The endpoint was whether tumor growth can be delayed or tumor bearing mice can be cured. Tumor size was measured twice weekly in two dimensions using a caliper, and the volume was expressed in mm3 using the formula: V=0.5 a×b2 where a and b are the long and short diameters of the tumor, respectively. The tumor size was then used for calculations of both T-C and T/C values. T-C was calculated with T as the time (in days) required for the mean tumor size of the treatment group to reach 1000 mm3, and C was the time (in days) for the mean tumor size of the control group to reach the same size. The T/C value (in percent) was an indication of antitumor efficacy; T and C were the mean tumor volume of the treated and control groups, respectively, on a given day. Complete tumor regression (CR) is defined as tumors that are reduced to below the limit of palpation (62.5 mm3). Partial tumor regression (PR) is defined as tumors that are reduced from initial tumor volume. A minimum duration of CR or PR in 3 or more successive tumor measurements is required for a CP or PR to be considered durable.
Statistical analyses of difference in tumor volume among the groups were evaluated using a one-way ANOVA followed by individual comparisons using Games-Howell (equal variance not assumed). All data were analyzed using SPSS 18.0. p<0.05 was considered to be statistically significant.

[2] = test system: NCI-H292 cells expressing human HGF; test: Tumor efficacy study with four bispecific EGFR/c-Met molecules, H292-HGF xenografts; assay type: in vivo, SCID Beige mice; details: 25 mg/kg three times per week
Procedure: One week after implantation, mice were stratified into groups with equivalent tumor volumes (mean tumor volume=77.9+/−1.7 mm3). Mice were dosed three times per week with the bispecific molecules and tumor volumes were recorded twice weekly.

[3] = Body weight loss and tolerability in the H292-HGF xenograft study; details: mouse, in vivo; listed as bispecific EGFR/c-Met molecule
Procedure: At the time of routine monitoring, the animals were checked for any effects of tumor growth and treatments on normal behavior, such as mobility, visual estimation of food and water consumption, body weight gain/loss (body weights were measured twice weekly), eye/hair matting and any other abnormal effect.
Animals for which the body weight loss exceeded 20%, or for which the mean tumor size of the group exceeds 2000 mm^3 were euthanized. The study was terminated after two weeks of observation after the final dose.

c-Met-Fc fusion protein = biological target: T1, c-Met-Fc fusion protein (Homo sapiens, UniProt P08581); test: c-Met-Fc affinity by surface plasmon resonance (Proteon); assay type: binding
T1 construct: recombinant EGFR and/or c-Met extracellular domain

[4] = test system: cell lines shown in Table 20; test: Inhibition of human tumor cell growth by bispecific molecule in cell line panel (standard or low attachment); assay type: cell-based
Procedure: (§1) Inhibition of human tumor cell growth was assessed in standard attachment culture as described in Examples 3 or 6, or in low attachment conditions.

H292 cells = test: Inhibition of proliferation of HGF-induced H292 cells; assay type: cell-based, human; details: bispecific molecules
Source text: Inhibition of tumor cell proliferation can be measured using standard methods and methods described herein.
The proliferation assay was completed using different combinations EGFR and c-Met binding FN3 domains either as a mixture or linked in a bispecific format. […] This confirmed that the avidity effect observed at the level of the receptors (FIG. 4 and FIG. 5) translates into an improvement in inhibiting cell signaling (Table 12) and cell proliferation (Table 13).
as §1

[5] = biological target: T2, recombinant EGFR extracellular domain (EGFR-Fc) (Homo sapiens, UniProt P00533); test: EGFR-Fc affinity by surface plasmon resonance (Proteon); assay type: binding; details: bispecific molecules; read-out: KD (EGFR)
T2 construct: purchased R&D Systems
Procedure: Select EGFR-binding FN3 domains were screened to identify those with slow off-rates (koff) in binding to EGFR-Fc on a ProteOn XPR-36 instrument (Bio-Rad) to facilitate selection of high affinity binders. Goat anti-human Fc IgG (R&D systems), at a concentration of 5 μg/mL, was directly immobilized via amine coupling (at pH 5.0) on all 6 ligand channels in horizontal orientation on the chip with a flow rate of 30 μL/min in PBS containing 0.005% Tween-20. The immobilization densities averaged about 1500 Response Units (RU) with less than 5% variation among different channels. EGFR-Fc was captured on the anti-human Fc IgG surface to a density around 600 RU in vertical ligand orientation. All tested FN3 domains were normalized to a concentration of 1 μM and tested for their binding in horizontal orientation. […] The dissociation phase was monitored for 10 minutes at a flow rate of 100 μL/min. […]
Binding affinity of selected EGFR-binding FN3 domains to recombinant EGFR extracellular domain was further characterized by surface Plasmon resonance methods using a Proteon Instrument (BioRad). […] The dissociation phase for all concentrations of each EGFR-binding FN3 domain was monitored at a flow rate of 100 μL/min for 30 minutes (for those with koff ˜10^−2 s^−1 from off-rate screening), or 1 hour (for those with koff ˜10^−3 s^−1 or slower). […]

EGFR [6] = biological target: T3, EGFR (Homo sapiens, UniProt P00533); test: Inhibition of EGFR phosphorylation in NCI-H292 cells; assay type: cell-based; set-up: host or cells: NCI-H292; details: FIG. 5A
Procedure: Purified EGFR-binding FN3 domains were tested for their ability to inhibit EGF-stimulated phosphorylation of EGFR in A431 cells at a single concentration. EGFR phosphorylation was monitored using the EGFR phospho(Tyr1173) kit (Meso Scale Discovery). […] Controls were treated with starvation medium only. […] One set of control wells was left un-stimulated as negative controls. Medium was completely removed, and cells were lysed with 100 μL/well of Complete Lysis Buffer (Meso Scale Discovery) for 10 minutes at room temperature with shaking, as per the manufacturer's instructions. […] Signals were detected by addition of 150 μL/well of Read Buffer (Meso Scale Discovery) and reading on a SECTOR® Imager 6000 instrument (Meso Scale Discovery) using manufacturer-installed assay-specific default settings. Percent inhibition of the EGF-stimulated positive control signal was calculated for each EGFR-binding FN3 domain.
NCI-H292, NCI-H441, or NCI-H596 cells were plated in 96 well plates in RPMI medium containing 10% FBS. […] Cells were lysed with MSD Lysis Buffer and cell signaling was assessed using appropriate MSD Assay plates, according to manufacturer's instructions, as described above.

EGFR [7] = biological target: T3, EGFR; test: Inhibition of EGFR phosphorylation in NCI-H441 cells; assay type: cell-based; set-up: host or cells: NCI-H292; details: FIG. 5C
Procedure: (§2) NCI-H292, NCI-H441, or NCI-H596 cells were plated in 96 well plates in RPMI medium containing 10% FBS. 24 hours later, medium was replaced with serum free RPMI. […] Cells were treated for 1 h with the monospecific or bispecific molecules and then stimulated with EGF, HGF, or a combination of EGF and HGF for 15 minutes at 37° C., 5% CO2. Cells were lysed with MSD Lysis Buffer and cell signaling was assessed using appropriate MSD Assay plates, according to manufacturer's instructions, as described above.

EGFR [8] = biological target: T3, EGFR; test: Inhibition of EGFR phosphorylation in NCI-H596 cells; assay type: cell-based; set-up: host or cells: NCI-H292; details: FIG. 5B
Procedure: as §2

[9] = serine mutants of A3 in the context of ECB15

T1 sequence (P08581 25-932 limits assumed): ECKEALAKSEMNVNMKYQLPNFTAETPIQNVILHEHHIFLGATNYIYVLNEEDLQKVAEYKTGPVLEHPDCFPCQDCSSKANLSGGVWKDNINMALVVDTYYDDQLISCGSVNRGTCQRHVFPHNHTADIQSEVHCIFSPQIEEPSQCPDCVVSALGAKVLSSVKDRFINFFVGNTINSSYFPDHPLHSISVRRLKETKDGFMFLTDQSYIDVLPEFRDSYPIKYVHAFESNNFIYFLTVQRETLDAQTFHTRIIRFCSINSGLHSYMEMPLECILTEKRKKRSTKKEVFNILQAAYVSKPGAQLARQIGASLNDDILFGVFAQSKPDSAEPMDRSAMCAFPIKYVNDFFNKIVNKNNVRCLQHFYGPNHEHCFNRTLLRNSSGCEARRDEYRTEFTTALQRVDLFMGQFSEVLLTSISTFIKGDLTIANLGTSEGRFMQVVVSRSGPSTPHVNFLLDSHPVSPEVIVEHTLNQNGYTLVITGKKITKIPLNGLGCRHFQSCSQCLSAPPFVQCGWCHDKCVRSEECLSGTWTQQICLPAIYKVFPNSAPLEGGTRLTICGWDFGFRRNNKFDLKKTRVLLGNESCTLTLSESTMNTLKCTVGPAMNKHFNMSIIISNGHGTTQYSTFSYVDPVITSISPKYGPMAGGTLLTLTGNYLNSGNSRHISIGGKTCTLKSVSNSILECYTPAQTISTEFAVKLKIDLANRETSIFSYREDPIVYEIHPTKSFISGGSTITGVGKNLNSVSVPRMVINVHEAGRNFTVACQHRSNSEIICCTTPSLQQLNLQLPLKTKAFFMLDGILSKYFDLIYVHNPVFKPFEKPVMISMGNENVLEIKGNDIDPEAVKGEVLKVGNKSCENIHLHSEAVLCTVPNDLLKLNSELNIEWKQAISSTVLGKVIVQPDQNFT

B1: ECB38: bispecific SEQ ID NO: 120: P54AR4-83v2, (AP)5, P114AR7P94-A3, linked to albumin binding domain (protein)
chain: MLPAPKNLVVSEVTEDSARLSWDDPWAFYESFLIQYQESEKVGEAIVLTVPGSERSYDLTGLKPGTEYTVSIYGVHNVYKDTNMRGLPLSAIFTTAPAPAPAPAPLPAPKNLVVSRVTEDSARLSWTAPDAAFDSFWIRYFEFLGSGEAIVLTVPGSERSYDLTGLKPGTEYVVNIMGVKGGKISPPLSAIFTTAPAPAPAPAPLAEAKVLANRELDKYGVSDYYKNLINNAKTVEGVKALLDEILAALP
modifications: Bispecific EGFR/c-Met binding molecule
Tumor Size at day 23 ([1]; bispecific 25 mg/kg, crizotinib, erlotinib 50 mg/kg, cetuximab 1 mg/mouse, listed as bispecific EGFR/c-Met molecule): 23 mm^3 and 23 ± 7 mm^3 | Tumor volume ([1]; day 7 (start of treatment)): 137 ± 7 mm^3 | Tumor volume ([1]; day 9): 142 ± 7 mm^3 | Tumor volume ([1]; day 13): 83 ± 6 mm^3 | Tumor volume ([1]; day 16): 44 ± 7 mm^3 | Tumor volume ([1]; day 20): 30 ± 6 mm^3 | Tumor volume ([1]; day 23): 23 ± 7 mm^3 | Tumor volume ([1]; day 27): 21 ± 5 mm^3 | Tumor volume ([1]; day 30): 23 ± 6 mm^3 | antitumor activity (in words) ([1]; mouse, in vivo, listed as bispecific EGFR/c-Met molecule): complete tumor regression (CR) in all mice; also recorded: complete response | tumor growth (tumor growth inhibition, TGI) [2]: reduced tumor growth | tumor growth (tumor growth inhibition, TGI) ([2]; listed as P54AR4-83v2-P114AR7P94-A3): showed the most efficacy | toxicity, body weight loss, tolerability (in words) [3]: Slight toxicity; also recorded: tolerated in 7 out of 10 mice

B4: ECB5: bispecific SEQ ID NO: 54: P53A1R5-17v2, (GGGGS)4, P114AR7P94-A3 (protein)
chain: MLPAPKNLVVSEVTEDSARLSWADPHGFYDSFLIQYQESEKVGEAIVLTVPGSERSYDLTGLKPGTEYTVSIYGVHNVYKDTNMRGLPLSAIFTTGGGGSGGGGSGGGGSGGGGSMLPAPKNLVVSRVTEDSARLSWTAPDAAFDSFWIRYFEFLGSGEAIVLTVPGSERSYDLTGLKPGTEYVVNIMGVKGGKISPPLSAIFTT
modifications: bispecific EGFR/cMet binding molecule
inhibition of phosphorylation of EGFR, bispecific versus monospecific (EGFR [6]): comparable | decrease of IC50 for inhibition of EGFR phosphorylation compared to monospecific EGFR-binding FN3 domain (EGFR [7]): 30 fold | inhibition of phosphorylation of EGFR, bispecific versus monospecific (EGFR [8]): comparable

Continued, in another order:

ka (c-Met-Fc fusion protein; [9]): 351000 M⁻¹ s⁻¹ | kd (c-Met-Fc fusion protein; [9]): 0.000133 s⁻¹ | IC50 (H292 cells): 23 nM
B2: ECB15: bispecific SEQ ID NO: 57: P54AR4-83v2, (AP)5, P114AR7P94-A3 (protein)
chain: MLPAPKNLVVSEVTEDSARLSWDDPWAFYESFLIQYQESEKVGEAIVLTVPGSERSYDLTGLKPGTEYTVSIYGVHNVYKDTNMRGLPLSAIFTTAPAPAPAPAPLPAPKNLVVSRVTEDSARLSWTAPDAAFDSFWIRYFEFLGSGEAIVLTVPGSERSYDLTGLKPGTEYVVNIMGVKGGKISPPLSAIFTT
modifications: bispecific EGFR/cMet binding molecule
growth of NCI-H1975 cell line ([4]; EGFR L858R, T790M): inhibited growth | tumor cell growth of cell lines shown in Table 20 ([4]; wild type, amplified or mutant EGFR, wild type or amplified c-Met): inhibited tumor cell growth

Kd (c-Met-Fc fusion protein; bispecific molecules, read-out: KD (c-Met)): 0.32 nM | IC50 (H292 cells): 3.1 nM | Kd [5]: 0.4 nM
B3: ECB168: bispecific SEQ ID NO: 190: P54AR4-83v22, (AP)5, P114AR7P95-C5v2 (protein)
chain: B2 chain with M84I, M177L, G178S, K183S
modifications: Bispecific EGFR/c-Met molecule
